Here are results for one substance from PMC12203670.

The target in this assay is PKM2 (pyruvate kinase M2), endogenous in mouse heart (mouse (endogenous in heart)) (UniProt P52480). The experiment in a line: cross-linking; cross-linking of cardiac PKM2, Western blot of monomer, dimer and tetramer; hearts of Ctrl and cKO mice after 3-h reperfusion, with TEPP-46 or vehicle, or with Ad-Mtx2. (In western blotting, separated proteins are transferred to a membrane and probed.)

Where “and” joins values, the source holds several entries; their conditions need not be identical. Identical values can stand only once.

Sequence of PKM2 (pyruvate kinase M2), endogenous in mouse heart, P52480 1-531 (enzyme; other documents disagree on this pair) (P52480 whole entry): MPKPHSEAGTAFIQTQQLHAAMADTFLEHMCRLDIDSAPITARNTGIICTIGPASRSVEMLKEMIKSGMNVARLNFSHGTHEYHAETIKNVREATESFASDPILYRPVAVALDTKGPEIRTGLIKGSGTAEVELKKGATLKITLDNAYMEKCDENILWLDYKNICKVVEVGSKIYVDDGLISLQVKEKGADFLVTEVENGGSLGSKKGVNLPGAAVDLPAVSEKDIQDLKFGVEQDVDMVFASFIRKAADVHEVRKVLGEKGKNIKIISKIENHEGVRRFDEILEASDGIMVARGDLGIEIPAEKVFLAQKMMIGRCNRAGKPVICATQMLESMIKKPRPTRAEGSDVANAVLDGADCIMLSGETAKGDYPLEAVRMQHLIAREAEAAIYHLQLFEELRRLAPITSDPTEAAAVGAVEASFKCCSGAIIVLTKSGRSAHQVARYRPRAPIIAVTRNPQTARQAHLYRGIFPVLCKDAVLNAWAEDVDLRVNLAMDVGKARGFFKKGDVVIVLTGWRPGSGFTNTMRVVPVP

Consider “PKM2 (pyruvate kinase M2), endogenous in mouse heart, P52480 1-531 (enzyme; other documents disagree on this pair)”, for which the stoichiometry N is 4 and 2.

In general, stoichiometry N refers to a count of units in the complex or per binding partner.
